Consider one protein from article PMC5900763, “Granule-stored MUC5B mucins are packed by the non-covalent formation of N-terminal head-to-head tetramers” (The Journal of Biological Chemistry, 2018).

Data set [1] concerns the molecule itself. The experiment in a line: SEC; Superose 6 3.2/300, 50 mM MES pH 6.2, 150 mM NaCl, no Ca2+. (Size exclusion chromatography separates by hydrodynamic size, large species first.)
Data set [2] deals with the molecule itself. The experiment in a line: SEC; Superose 6 3.2/300, 50 mM MES pH 6.2, 150 mM NaCl, 4 mM CaCl2, 0 h incubation, room temperature; covalent dimers to tetramer.

Usually stoichiometry N stands for the number of molecules, sites or subunits per partner or assembly.

B1: MUC5B N-terminal part (MUC5B-N), recombinant covalent dimer (domain or fragment, human, UniProt Q9HC84 26-1304, looked up)
chain: QGPVEPSWENAGHTMDGGAPTSSPTRRVSFVPPVTVFPSLSPLNPAHNGRVCSTWGDFHYKTFDGDVFRFPGLCNYVFSEHCRAAYEDFNVQLRRGLVGSRPVVTRVVIKAQGLVLEASNGSVLINGQREELPYSRTGLLVEQSGDYIKVSIRLVLTFLWNGEDSALLELDPKYANQTCGLCGDFNGLPAFNEFYAHNARLTPLQFGNLQKLDGPTEQCPDPLPLPAGNCTDEEGICHRTLLGPAFAECHALVDSTAYLAACAQDLCRCPTCPCATFVEYSRQCAHAGGQPRNWRCPELCPRTCPLNMQHQECGSPCTDTCSNPQRAQLCEDHCVDGCFCPPGTVLDDITHSGCLPLGQCPCTHGGRTYSPGTSFNTTCSSCTCSGGLWQCQDLPCPGTCSVQGGAHISTYDEKLYDLHGDCSYVLSKKCADSSFTVLAELRKCGLTDNENCLKAVTLSLDGGDTAIRVQADGGVFLNSIYTQLPLSAANITLFTPSSFFIVVQTGLGLQLLVQLVPLMQVFVRLDPAHQGQMCGLCGNFNQNQADDFTALSGVVEATGAAFANTWKAQAACANARNSFEDPCSLSVENENYARHWCSRLTDPNSAFSRCHSIINPKPFHSNCMFDTCNCERSEDCLCAALSSYVHACAAKGVQLSDWRDGVCTKYMQNCPKSQRYAYVVDACQPTCRGLSEADVTCSVSFVPVDGCTCPAGTFLNDAGACVPAQECPCYAHGTVLAPGEVVHDEGAVCSCTGGKLSCLGASLQKSTGCAAPMVYLDCSNSSAGTPGAECLRSCHTLDVGCFSTHCVSGCVCPPGLVSDGSGGCIAEEDCPCVHNEATYKPGETIRVDCNTCTCRNRRWECSHRLCLGTCVAYGDGHFITFDGDRYSFEGSCEYILAQDYCGDNTTHGTFRIVTENIPCGTTGTTCSKAIKLFVESYELILQEGTFKAVARGPGGDPPYKIRYMGIFLVIETHGMAVSWDRKTSVFIRLHQDYKGRVCGLCGNFDDNAINDFATRSRSVVGDALEFGNSWKLSPSCPDALAPKDPCTANPFRKSWAQKQCSILHGPTFAACRSQVDSTKYYEACVNDACACDSGGDCECFCTAVAAYAQACHDAGLCVSWRTPDTCPLFCDFYNPHGGCEWHYQPCGAPCLKTCRNPSGHCLVDLPGLEGCYPKCPPSQPFFNEDQMKCVAQCGCYDKDGNYYDVGARVPTAENCQSCNCTPSGIQCAHSLEACTCTYEDRTYSYQDVIYNTTDGLGACLIAICGSNGTIIRKAVACPG
notes: MUC5B mucin, human, N-terminal part with the von Willebrand D1, D2, D' and D3 domains, residues 26-1304 of GenBank NM_002458; Disulfide-bonded (covalent) dimer through D3; Two such dimers form the non-covalent tetramer (Dx2) at pH 6.2 with Ca2+; also called MUC5B N-terminal covalent dimer; MUC5B N terminus; not shown: His6, N-terminal, kept
B1: the “stoichiometry N” value was 2 in data set [1] and 4 in data set [2].
